Where a SMILES comes first, the peptide text is derived from it. Where no end group is shown, it is not given here. The star is where a group is joined. FITC = O=C1OC2(c3ccc(O)cc3Oc3cc(O)ccc32)c2ccc(NC(=S)*)cc21

This note sets out measurements from PMC6565748, “Environmental pH and peptide signaling control virulence of Streptococcus pyogenes via a quorum-sensing pathway” (Nature Communications, 2019).

For test [1], the target named is synthetic SIP peptide containing fluorescein modification at its amino-terminus (FITC-SIP). As to the kind of experiment: FP assay. The settings on record: for Kd: parent: 6.3 ± 0.5 nM.
Test [2] concerns the target regulator of proteinase B (RopB), full-length, wild type. As to the kind of experiment: FP assay. The following applies: for Kd: parent: 13 ± 0.3 nM.
The target of the next test is T1, RopB (Streptococcus pyogenes, UniProt Q9FB04).
T1 sequence (Q9FB04 1-280): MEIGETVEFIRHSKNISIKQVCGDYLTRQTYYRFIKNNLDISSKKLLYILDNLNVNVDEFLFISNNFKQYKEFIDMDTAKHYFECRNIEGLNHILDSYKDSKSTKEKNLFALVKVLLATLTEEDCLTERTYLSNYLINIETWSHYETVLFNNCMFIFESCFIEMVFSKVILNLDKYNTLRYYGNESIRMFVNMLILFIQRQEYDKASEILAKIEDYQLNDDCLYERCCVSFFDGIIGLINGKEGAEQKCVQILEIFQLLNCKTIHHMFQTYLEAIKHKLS
Put plainly: Fluorescence polarization (FP) assay of RopB binding to fluoresceinated SIP peptides. The settings on record: Fig. 3c; compared to SIP (SIP-WT). On the procedure:
The coding regions of the full-length and C-terminal domain (RopB–CTD) (amino acids 56–280) of ropB gene of strain MGAS10870 were cloned into plasmids pET-28a and pET-21b, respectively. Protein was overexpressed in E. coli strain BL21 (DE3). Protein overexpression and purification for both full-length RopB and RopB–CTD were carried out as described previously[37],[68]. The proteins were purified to >95% homogeneity and concentrated to a final concentration of ~ 20 mg/ml.
(§1) Fluorescence polarization-based RopB-ligand binding experiments were performed with a Biotek microplate reader (Biotek) using the […] fluorescence of fluorescein labeled DNA or synthetic peptides. The polarization (P) of the labeled DNA or synthetic peptides increases as a function of protein binding, and equilibrium dissociation constants were determined from plots of millipolarization (P × 10^–3) against protein concentration. For RopB–DNA-binding studies, 1 nM 5′-fluoresceinated oligoduplex in binding buffer (20 mM Tris–HCl pH 8.5, 200 mM NaCl, 1 mM TCEP and 25% DMSO) was titrated against increasing concentrations of purified RopB and the resulting change in polarization measured. Samples were excited at 490 nm and emission measured at 530 nm. […]
On the technique in general: Polarisation of emitted light reports the rotation of a fluorescent probe.

Test [3] relates to speB expression in SIP* mutant strain. Put plainly: Synthetic peptide addition assay, speB transcript level by qRT-PCR in SIP* mutant strain. The format is cell-based, Streptococcus pyogenes. As for the experimental part: Synthetic peptides of high purity (>90% purity) obtained from Peptide 2.0 (Chantilly, VA) were suspended in 100% DMSO to prepare a 10 mM stock solution. Stock solutions were aliquoted and stored at −20 °C until use. Working stocks were prepared by diluting the stock solution in 25% DMSO.
GAS strains were grown to the indicated A600 and incubated with two volumes of RNAprotect (Qiagen) for 10 min at room temperature. RNA isolation and purification were performed with an RNeasy kit (Qiagen). After quality control analysis, cDNA was synthesized from the purified RNA using Superscript III (Invitrogen) and Taqman qRT-PCR was performed with an ABI 7500 Fast System (Applied Biosystems). Comparison of transcript levels was performed by the ∆CT method of analysis using tufA as the endogenous control gene[5],[78]. The primers and probes used for qRT-PCR are listed in Supplementary Table 2.

Test [4] deals with RopB–speB promoter interactions. Put plainly: FP assay of RopB–DNA binding in presence of SIP peptides. More on the design: species or system Streptococcus pyogenes. The settings on record: fluoresceinated oligoduplexes with RopB binding sites from speB promoter, RopB complexed with SIP peptide (Supplementary Fig. 8c, d). On the procedure:
as §1, with “nm. The RopB-peptide-binding studies were performed in a peptide-binding buffer composed of 20 mM potassium phosphate pH 6.0, 75 mM Nacl, 2% DMSO, 1 mM EDTA and 0.0005% Tween 20. All data were plotted using KaleidaGraph and the resulting plots were fitted with the equation P = {(Pbound − Pfree)[protein]/(KD + [protein])} + Pfree, where P is the polarization measured at a given protein concentration, Pfree is the initial polarization of the free ligand, Pbound is the maximum polarization of specifically bound ligand and [protein] is the protein concentration. Nonlinear least squares analysis was used to determine Pbound, and Kd.” for “nm.”

For test [5], the target named is synthetic SIP variant SIP-L6A (Streptococcus pyogenes). As to the kind of experiment: fluorescence polarisation; fluorescein labeled synthetic peptide titrated with purified RopB protein; 20 mM potassium phosphate pH 6.0, 75 mM NaCl, 2% DMSO, 1 mM EDTA, 0.0005% Tween 20.
For the next test, the system named is SpeBM. As to the kind of experiment: SpeB protease activity assay with SpeBZ-C192S zymogen as substrate. The format is biochemical, Streptococcus pyogenes. The settings on record: SDS-PAGE; 0.25 mg/ml C192S zymogen, 0.1 µg mature SpeB, different buffer pH. On the procedure: Purified C192S was added to a final concentration of 0.25 mg/ml in reaction mixture containing 0.1 µg of mature SpeB in different buffer pH conditions. Aliquots were collected at indicated time points and reaction was stopped by adding SDS gel-loading buffer. Proteolytic processing of C192S zymogen into mature form was visualized by SDS-PAGE.

Test [6] concerns the target T2, regulator of proteinase B (RopB), full-length, wild type (Streptococcus pyogenes (strain …)).
T2 chain: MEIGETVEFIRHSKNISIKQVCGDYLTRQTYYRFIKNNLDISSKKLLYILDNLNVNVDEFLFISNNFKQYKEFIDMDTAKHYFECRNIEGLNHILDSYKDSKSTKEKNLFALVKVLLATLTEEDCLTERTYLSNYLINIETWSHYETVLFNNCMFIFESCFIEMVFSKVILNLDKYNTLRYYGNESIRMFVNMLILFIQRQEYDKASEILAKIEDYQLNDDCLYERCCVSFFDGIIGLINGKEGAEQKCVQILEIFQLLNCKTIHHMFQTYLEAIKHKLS
Put plainly: FP; pH 5.5.

Test [7] deals with T2, regulator of proteinase B (RopB), …. Put plainly: FP; pH 6.0.
Test [8] has the same target. As to the kind of experiment: FP; pH 6.5.
The target is the same in test [9]. As to the kind of experiment: FP; pH 7.0.
Test [10] has the same target. As to the kind of experiment: FP; pH 7.5.
The target is the same in test [11]. Put plainly: FP; pH 8.0.
Test [12] shares this target. Put plainly: FP; pH 8.5.
For test [13] the target is unchanged. As to the kind of experiment: FP; pH 9.0.

By Kd is commonly meant a measure of binding affinity in units of concentration. On to “regulator of proteinase B (RopB), full-length, wild type M267A”, for which, in [1], the ratio to parent was determined as 44 and the Kd was found to be 283 nM.

For “SpeB-inducing peptide (SIP), synthetic, unmodified L4A”, in test [2], the ratio to parent was 27 and the Kd stood at 358 nM.

For the molecule `CSCC[C@H](N)C(=O)N[C@@H](Cc1c[nH]c2ccccc12)C(=O)N[C@@H](CC(C)C)C(=O)N[C@@H](CC(C)C)C(=O)N[C@@H](CC(C)C)C(=O)N[C@@H](C)C(=O)N[C@@H](Cc1ccccc1)C(=O)N[C@@H](CC(C)C)C(=O)O` [SIP-L6A] (H-MWLLLAFL-OH; N-terminus and C-terminus assumed), the “Fold change reduction in Kd” value at RopB was ~ 2.7. For the same molecule, the “Ability to activate RopB-dependent speB expression” value in test [3] (SIP addition assay, SIP* mutant strain, reference DMSO-supplemented strain (Fig. 3d)) was “partial activity”. In test [4], the “Effect on RopB–promoter (operator sequence) interactions” value is on record as “WT-like binding to operator sequences”.

As for “regulator of proteinase B (RopB), full-length, wild type N152A”, in test [1], the ratio to parent was found to be 28 and the Kd worked out at 243 nM.

With “SpeB-inducing peptide (SIP), synthetic, unmodified L3A”, in [2], the ratio to parent worked out at 41 and the Kd was found to be 534 nM.

As to “SpeB-inducing peptide (SIP), synthetic, unmodified W2A”, in test [2], the ratio to parent came to 44 and the Kd was 570 nM.

Consider “regulator of proteinase B (RopB), full-length, wild type R188A”, for which, in [1], the ratio to parent amounted to 67 and the Kd amounted to 429 nM.

Turning to “regulator of proteinase B (RopB), full-length, wild type (receptor)”, the fold reduction in binding affinity compared to SIP in test [5] came out at 2.7 fold.

For the molecule “SpeB-inducing peptide (SIP), synthetic, unmodified L8A”, in test [2], the ratio to parent came to 8 and the Kd was 106 nM.

For “SpeB-inducing peptide (SIP), synthetic, unmodified L6A”, the Kd in test [2] turned out to be 36 nM.

“regulator of proteinase B (RopB), full-length, wild type F155A”: in test [1], the ratio to parent turned out to be 5 and the Kd is 33 nM.

Take `CSCC[C@H](N)C(=O)N[C@@H](Cc1c[nH]c2ccccc12)C(=O)N[C@@H](CC(C)C)C(=O)N[C@@H](CC(C)C)C(=O)N[C@@H](CC(C)C)C(=O)N[C@@H](CC(C)C)C(=O)N[C@@H](Cc1ccccc1)C(=O)N[C@@H](CC(C)C)C(=O)O` [SIP] (H-MWLLLLFL-OH; N-terminus and C-terminus assumed): in test [3] (SIP* mutant strain at A600 ~1.7, THY broth adjusted to different pH, synthetic SIP, 1 h, relative to unsupplemented strain), the “SIP-dependent speB expression (speB transcript level)” value was “maximal within a very narrow pH range (pH 5.5–6.0)”. The “Ability to induce speB expression” value in test [3] (SIP* mutant strain, THY pH 8, SIP added even at 100-fold excess, 1 h) was “lost the ability to induce speB expression”.

In the case of “regulator of proteinase B (RopB), full-length, wild type N192A”, in [1], the ratio to parent was 72 and the Kd was found to be 462 nM.

With “SpeB-inducing peptide (SIP), synthetic, unmodified M1A”, in test [2], the ratio to parent turned out to be 20 and the Kd came to 259 nM.

Consider “SpeB-inducing peptide (SIP), synthetic, unmodified F7A”, for which, in test [2], the ratio to parent is 11 and the Kd turned out to be 142 nM.

For the molecule “SpeB-inducing peptide (SIP), synthetic, unmodified L5A”, in [2], the ratio to parent turned out to be 48 and the Kd is 625 nM.

In the case of `CC(C)C[C@H](NC(=O)[C@H]1O[C@@H]1C(=O)O)C(=O)NCCCCN=C(N)N` [E64], the “Proteolytic cleavage of SpeBZ-C192S by SpeBM” value in the test with SpeBM is listed as “inhibited”.

For {FITC}-MWLLLLFL [synthetic SIP peptide containing fluorescein modification at its amino-terminus (FITC-SIP)], the Kd in test [6] stood at 5.4 nM; in test [7], 1.8 nM; in test [8] it was 2.9 nM; in test [9], 11.8 nM; in test [10], 42.1 nM; in [11], 78.6 nM. For the same molecule, the dissociation constant (Kd) in [12] was determined as 222 nM; in test [13] it was 320 nM.
